B1: Lysine-specific demethylase 5C, residues 319 to 373; numbered along this chain, P41229 (parent)
chain: AQFIESYVCRMCSRGDEDDKLLLCDGCDDNYHIFCLLPPLPEIPKGVWRCPKCVM

Variants of: B1
Experiment: abundance fitness (aPCA) (normalised: wild type 0, dead -1); higher = more abundant; growth selection in yeast, the domain comes from the species named
Conditions: Homo sapiens

Abundance fitness, by site and new letter:
C12: T -0.683 | M -0.669 | W -0.853 | A -0.99 | F -0.731
V8: M -0.052 | H -0.11 | K 0.254 | E -0.266 | R -0.075 | Y -0.157 | D -0.315 | A -0.092 | W -0.247 | G -0.106 | F -0.28 | N 0.083 | T -0.039 | Q -0.11 | L -0.243 | P -0.12 | C -0.258 | I -0.241 | S 0.007
Q2: I 0.186 | W -0.057 | A -0.273 | E -0.258 | H -0.187 | R -0.271 | L -0.119 | T 0.203 | F -0.531 | G -0.446 | P -0.141 | Y -0.053 | N -0.019 | C -0.446 | V -0.153 | K 0.247 | M -0.109
E5: R 0.046 | L -0.378 | G -0.128 | K 0.036 | V -0.481 | W -0.451 | T -0.078 | N 0.275 | D 0.054 | H -0.263 | M 0.145 | Y -0.162 | S -0.125 | P -0.435 | Q 0.02 | I -0.283 | C 0.046
S6: G -0.042 | C -0.361 | H -0.294 | K -0.295 | E -0.08 | T 0.148 | F -0.154 | Y -0.1 | I -0.445 | V -0.377 | A -0.068 | R 0.001 | M 0.217 | W -0.414 | D -0.523 | N 0.183 | Q -0.409 | P -0.097
M11: K 0.169 | V -0.135 | R 0.073 | S -0.138 | A -0.079 | I -0.121 | P -0.669 | T -0.211 | Q 0.045 | E 0.171 | H -0.281 | W -0.18 | C -0.085 | N 0.045 | D -0.063 | L -0.264 | G -0.072
Y7: D 0.173 | V -0.121 | K 0.155 | I -0.023 | L -0.057 | T 0.199 | S 0.139 | P -0.073 | A 0.18 | R 0.14 | F -0.14 | W -0.266 | Q -0.052 | E 0.193 | M 0.078 | H -0.09
I4: R -0.3 | G -0.302 | F -0.098 | A -0.188 | T 0.201 | D -0.058 | Q 0.451 | H -0.111 | M 0.115 | W -0.287 | E -0.145 | Y -0.687 | N -0.35 | P -0.118 | V -0.019 | L -0.338 | C -0.106 | K -0.033
F3: E -0.114 | S 0.06 | L 0.005 | K 0.016 | W -0.639 | I -0.17 | D -0.418 | M 0.095 | Q -0.201 | Y -0.043 | T -0.046 | C -0.193 | A -0.12 | P -0.141 | N 0.182 | H -0.095 | V 0.042 | G 0.022 | R 0.072
A1: S -0.244 | M 0.135 | D -0.009 | E -0.143 | V -0.297 | W -0.242 | T -0.704 | I 0.146 | L -0.331
R10: L 0.021 | V -0.137 | E -0.1 | T 0.082 | M -0.036 | S -0.28 | Y -0.175 | P -0.394 | A -0.148 | D -0.384 | C -0.108 | Q -0.609

From the Human Domainome abundance scans (Beltran et al. 2025)
